We go through one molecule from paper PMC12603737, “Transmembrane domain interactions underlie NSG1 regulation of sortilin ectodomain shedding” (The Journal of Biological Chemistry, 2025).

For assay [1], the target named is T1, sortilin T770W (human, UniProt Q99523 78-831, T770W).
T1 sequence (looked up): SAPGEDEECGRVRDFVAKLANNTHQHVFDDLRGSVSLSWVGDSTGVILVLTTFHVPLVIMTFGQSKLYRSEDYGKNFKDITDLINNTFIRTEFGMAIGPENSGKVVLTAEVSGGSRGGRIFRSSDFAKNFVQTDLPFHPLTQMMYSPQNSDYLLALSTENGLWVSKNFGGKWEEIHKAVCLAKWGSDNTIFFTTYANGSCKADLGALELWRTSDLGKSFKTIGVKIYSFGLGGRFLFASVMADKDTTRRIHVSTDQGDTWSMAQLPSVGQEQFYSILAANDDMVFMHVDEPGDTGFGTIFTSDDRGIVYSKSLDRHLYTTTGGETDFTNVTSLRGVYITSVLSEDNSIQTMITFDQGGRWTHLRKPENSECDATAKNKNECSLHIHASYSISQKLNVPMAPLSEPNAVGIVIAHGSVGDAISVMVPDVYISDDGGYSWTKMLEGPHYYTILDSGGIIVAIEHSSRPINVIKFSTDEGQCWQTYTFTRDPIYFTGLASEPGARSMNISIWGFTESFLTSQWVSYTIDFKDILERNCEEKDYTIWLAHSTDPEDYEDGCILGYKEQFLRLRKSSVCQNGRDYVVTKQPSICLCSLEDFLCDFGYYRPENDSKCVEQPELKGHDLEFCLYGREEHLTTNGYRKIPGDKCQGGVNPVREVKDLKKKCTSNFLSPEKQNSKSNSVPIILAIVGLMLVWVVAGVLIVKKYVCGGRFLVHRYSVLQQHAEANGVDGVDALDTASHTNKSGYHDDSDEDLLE
Description: cell-based or functional assay.

The target in assay [2] is T2, sortilin A773W (human, UniProt Q99523 78-831, A773W).
T2 sequence (looked up): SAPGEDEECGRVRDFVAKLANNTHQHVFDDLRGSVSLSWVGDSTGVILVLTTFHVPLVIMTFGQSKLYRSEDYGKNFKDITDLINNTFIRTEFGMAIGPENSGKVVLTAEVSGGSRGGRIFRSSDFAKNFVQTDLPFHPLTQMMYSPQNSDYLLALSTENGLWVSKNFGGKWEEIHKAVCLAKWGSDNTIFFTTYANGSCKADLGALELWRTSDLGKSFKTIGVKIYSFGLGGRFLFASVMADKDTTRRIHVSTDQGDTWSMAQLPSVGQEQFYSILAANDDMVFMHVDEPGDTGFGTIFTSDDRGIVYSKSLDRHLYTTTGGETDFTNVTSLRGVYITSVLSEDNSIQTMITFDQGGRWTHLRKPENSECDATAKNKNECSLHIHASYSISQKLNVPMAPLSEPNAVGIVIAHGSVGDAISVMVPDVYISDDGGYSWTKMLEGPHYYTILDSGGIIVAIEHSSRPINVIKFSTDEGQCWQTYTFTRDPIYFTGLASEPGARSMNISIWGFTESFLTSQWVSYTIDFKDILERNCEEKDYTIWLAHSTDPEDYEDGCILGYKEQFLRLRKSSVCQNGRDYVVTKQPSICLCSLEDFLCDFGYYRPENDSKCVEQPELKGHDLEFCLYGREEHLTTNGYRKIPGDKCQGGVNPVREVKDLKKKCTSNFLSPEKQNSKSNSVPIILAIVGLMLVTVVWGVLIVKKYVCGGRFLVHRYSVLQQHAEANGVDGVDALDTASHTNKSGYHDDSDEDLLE
Description: cell-based or functional assay.

Assay [3] concerns the target T1, sortilin T770W. The experiment in a line: co-IP; HEK293MSR cells overexpressing sortilin WT or TMD mutants along with NSG1; lysis in 5 mM CHAPS buffer; IP with rabbit anti-sortilin (control rabbit IgG), protein A-agarose, 4 °C; NSG1 normalized to precipitated sortilin, percent of WT; five independent experiments. The note with it: partners not purified.
Assay [4] addresses T3, sortilin Y781K (human, UniProt Q99523 78-831, Y781K).
T3 construct: signal peptide in the construct; propeptide too; Full-length human SORT1 with a mutation at the cytoplasmic border of the TMD; source: HEK293MSR, transfected, in lysate (5 mM CHAPS)
T3 sequence (looked up): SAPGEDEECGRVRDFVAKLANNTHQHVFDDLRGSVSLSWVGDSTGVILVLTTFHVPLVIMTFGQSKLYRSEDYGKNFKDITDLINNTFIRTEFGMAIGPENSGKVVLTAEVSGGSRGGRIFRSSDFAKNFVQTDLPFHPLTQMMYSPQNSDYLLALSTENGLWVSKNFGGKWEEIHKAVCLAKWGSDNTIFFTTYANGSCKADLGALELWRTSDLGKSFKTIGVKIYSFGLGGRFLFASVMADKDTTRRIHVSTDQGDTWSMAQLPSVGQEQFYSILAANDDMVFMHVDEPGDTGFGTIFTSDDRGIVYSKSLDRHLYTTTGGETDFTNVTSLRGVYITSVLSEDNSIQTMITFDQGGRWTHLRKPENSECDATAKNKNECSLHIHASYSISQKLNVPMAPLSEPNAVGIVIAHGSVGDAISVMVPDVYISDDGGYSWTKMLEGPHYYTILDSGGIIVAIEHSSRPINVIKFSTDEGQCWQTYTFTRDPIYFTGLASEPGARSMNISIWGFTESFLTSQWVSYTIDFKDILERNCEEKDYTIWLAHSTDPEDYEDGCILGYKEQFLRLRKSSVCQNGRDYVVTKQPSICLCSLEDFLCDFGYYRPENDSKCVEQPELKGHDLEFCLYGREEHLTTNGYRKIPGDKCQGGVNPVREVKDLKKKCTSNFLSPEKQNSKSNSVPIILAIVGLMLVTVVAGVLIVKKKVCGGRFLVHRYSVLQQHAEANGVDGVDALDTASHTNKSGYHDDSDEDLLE
Described as above. The note with it: partners not purified.

The target of assay [5] is T2, sortilin A773W. The assay is described as above. The note with it: partners not purified.

B1: neuron-specific gene 1 (NSG1) (natural protein, human, UniProt P42857 1-185, looked up)
chain: MVKLGNNFAEKGTKQPLLEDGFDTIPLMTPLDVNQLQFPPPDKVVVKTKTEYEPDRKKGKARPPQIAEFTVSITEGVTERFKVSVLVLFALAFLTCVVFLVVYKVYKYDRACPDGFVLKNTQCIPEGLESYYAEQDSSAREKFYTVINHYNLAKQSITRSVSPWMSVLSEEKLSEQETEAAEKSA
notes: Human NSG1, subcloned from the pPR3 yeast two-hybrid library vector into pcDNA3; UniProt P42857 is printed for the modelling; no tag is named, detection with an anti-NSG1 antibody; source: HEK293MSR, transiently transfected, in lysate (5 mM CHAPS)
On to B1, for which the figures for the “sortilin ectodomain accumulated in conditioned media of HEK293MSR cells cotransfected with NSG1 (Western blot), percent of WT sortilin” value in assay [1] and in assay [2] were 40 % of WT sortilin and 46 % of WT sortilin, respectively. Also, the “NSG1 coimmunoprecipitated, normalized to immunoprecipitated sortilin, percent of WT sortilin” value in assay [3] is 146%; in assay [4] it was 130%; in assay [5], 129%.
